Assay results published in US20160348147.

System: PSA peptide M(GVGVP)60GDGQSSIYSQTEEQQDDEEG

Prostate Specific Antigen (PSA), active
optical density of 100 µM PSA peptide before and after 2 h with 20 ng/mL active PSA at 37 C: a distinct difference in the presence of active PSA, with an increase in optical density of the solution above the transition temperature after incubation with enzyme
